Source: paper PMC8551457
Entries after “also recorded” stand apart in the source; their conditions may differ.

Assays:
[1] = target: phytochrome-associated protein phosphatase 5 from Arabidopsis thaliana (AtPAPP5), isoform 2, 1-484, affinity tag removed, labelled with a green maleimide dye (Arabidopsis thaliana) (UniProt Q84XU2); test: MST; labelled AtPAPP5 at 50 nM, AtPhyB(1-651) variant titrated (S86D 4 nM to 70 uM, S84D 2 nM to 29 uM); 100 uM arachidonic acid (AA) added, 15 min incubation; 25 °C; premium coated capillaries; 1:1 binding model; apparent KD; phytochrome in photodynamical equilibrium with prevalence of Pfr
[2] = phosphorylation at S86

Sequence of UniProt Q84XU2 (Q84XU2 other isoform, or with tags, fused parts or gaps): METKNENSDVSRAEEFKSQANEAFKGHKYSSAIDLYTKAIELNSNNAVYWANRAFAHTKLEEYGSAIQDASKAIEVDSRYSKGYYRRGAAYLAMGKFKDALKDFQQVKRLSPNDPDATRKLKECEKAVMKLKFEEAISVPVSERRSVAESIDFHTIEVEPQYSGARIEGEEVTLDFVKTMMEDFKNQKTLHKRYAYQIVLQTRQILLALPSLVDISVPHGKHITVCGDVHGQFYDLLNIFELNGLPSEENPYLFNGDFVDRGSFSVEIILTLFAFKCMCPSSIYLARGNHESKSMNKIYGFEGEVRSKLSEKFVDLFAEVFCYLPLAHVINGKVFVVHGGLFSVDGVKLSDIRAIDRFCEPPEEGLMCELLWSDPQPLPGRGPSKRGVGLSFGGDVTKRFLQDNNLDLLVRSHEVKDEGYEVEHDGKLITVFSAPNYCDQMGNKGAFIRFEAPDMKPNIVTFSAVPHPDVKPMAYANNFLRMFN

Row | Kd [1] [nM] | Substance | other [2]
1 | 1300 | AtPhyB(1-651) S84D, phosphomimetic variant of the photosensory module of Arabidopsis thaliana phytochrome B (domain or fragment) | –
2 | 1800 | AtPhyB(1-651) S86D, phosphomimetic variant of the photosensory module of Arabidopsis thaliana phytochrome B (domain or fragment) | –
3 | – | phytochrome B (AtPhyB): S86D phosphomimetic | increases, dark conversion t1/2 40 min vs 270 min for wild type; also recorded: changes, 5 nm bathochromic shift of the Pfr absorption maximum
